What was measured:
[1] = test system: Human stem cells (iPS cat #SC101a-1); experiment: Human stem cell growth and pluripotency in NME7-AB or NM23-H1 dimers; type: cell-based; conditions: for pluripotent stem cell growth / differentiation: 8 nM in Minimal Stem Cell Media
Method: For testing recombinant NME7-AB for ability to maintain pluripotency and inhibit differentiation, a soluble variant of NME7, NME7-AB, was generated and purified. Human stem cells (iPS cat #SC101a-1, System Biosciences) were grown per the manufacturer's directions in 4 ng/ml bFGF over a layer of mouse fibroblast feeder cells for four passages. These source stem cells were then plated into 6-well cell culture plates (Vita™, Thermo Fisher) that had been coated with 12.5 ug/well of a monoclonal anti-MUC1* antibody, MN-C3. Cells were plated at a density of 300,000 cells per well. The base media was Minimal Stem Cell Media consisting of: 400 ml DME/F12/GlutaMAX I (Invitrogen #10565-018), 100 ml Knockout Serum Replacement (KO-SR, Invitrogen #10828-028), 5 ml 100×MEM Non-essential Amino Acid Solution (Invitrogen #11140-050) and 0.9 ml (0.1 mM) β-mercaptoethanol (55 mM stock, Invitrogen #21985-023). The base media can be any media. In a preferred embodiment, the base media is free of other growth factors and cytokines. To the base media was added either 8 nM of NME7-AB or 8 nM NM23-H1 refolded and purified as stable dimers. Media was changed every 48 hours and due to accelerated growth, had to be harvested and passaged at Day 3 post-plating.
Cell counts at the first harvest verified that culture in NME7 produced 1.4-times more cells than culture in NM23-H1 dimers.

[2] = molecular target: T1, PSMGFR peptide (MUC1* extracellular domain) (Homo sapiens, UniProt P15941); experiment: Sandwich ELISA: NME7-AB dimerizes MUC1* extra cellular domain peptide; type: binding
T1 construct: The PSMGFR peptide bearing a C-terminal Cysteine (PSMGFR-Cys) was covalently coupled to BSA; made in house; host or cells: E. coli (NME7-AB)
T1 sequence (P15941 1110-1154 limits assumed) 1: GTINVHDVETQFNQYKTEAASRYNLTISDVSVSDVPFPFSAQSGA
T1 sequence (Q9Y5B8 92-376 partner limits assumed): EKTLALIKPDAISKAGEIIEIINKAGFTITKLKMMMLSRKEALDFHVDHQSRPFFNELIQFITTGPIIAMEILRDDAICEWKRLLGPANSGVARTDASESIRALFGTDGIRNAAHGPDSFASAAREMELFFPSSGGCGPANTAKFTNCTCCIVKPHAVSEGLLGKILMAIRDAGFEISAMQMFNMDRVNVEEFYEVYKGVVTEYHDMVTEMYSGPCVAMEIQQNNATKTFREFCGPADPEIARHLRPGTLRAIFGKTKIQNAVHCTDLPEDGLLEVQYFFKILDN
T1 sequence (P15941 1110-1154 limits assumed) 3: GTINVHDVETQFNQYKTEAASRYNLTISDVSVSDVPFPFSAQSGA
Method: The PSMGFR peptide bearing a C-terminal Cysteine (PSMGFR-Cys) was covalently coupled to BSA using Imject Maleimide activated BSA kit (Thermo Fisher). PSMGFR-Cys coupled BSA was diluted to 10 ug/mL in 0.1M carbonate/bicarbonate buffer pH 9.6 and 50 uL was added to each well of a 96 well plate. After overnight incubation at 4° C., the plate was washed twice with PBS-T and a 3% BSA solution was added to block remaining binding site on the well. After 1 h at RT the plate was washed twice with PBS-T and NME7, diluted in PBS-T+1% BSA, was added at different concentrations. After 1 h at RT the plate was washed 3× with PBS-T and anti-NM23-H7 (B-9, Santa Cruz Biotechnology), diluted in PBS-T+1% BSA, was added at 1/500 dilution. […] After 1 h at RT the plate was washed 3× with PBS-T and binding of NME7 was measured at 415 nm using ABTS solution (Pierce). […]
After 1 h at RT the plate was washed 3× with PBS-T and HisTagged PSMGFR peptide (PSMGFR-His) or biotinylated PSMGFR peptide (PSMGFR-biotin), diluted in PBS-T+1% BSA, was added at different concentration. […] After 1 h at RT the plate was washed 3× with PBS-T and binding of PSMGFR peptide to NME7 already bound to another PSMGFR peptide (which could not signal by anti-His antibody or by streptavidin) coupled BSA was measured at 415 nm using a ABTS solution (Pierce).

[3] = test system: OV-90 ovarian cancer cell line; experiment: RT-PCR of metastatic markers after culture in NME7-AB, OV-90; type: cell-based, human; conditions: 72 or 144 hours
Source text: (§1) FIGS. 37A-37C show graphs of RT-PCR measurements of metastatic markers in cancer cells after being cultured in a serum-free media containing NME7-AB compared to the standard media.

[4] = test system: SK-OV3 ovarian cancer cell line; experiment: RT-PCR of metastatic markers after culture in NME7-AB, SK-OV3; type: cell-based, human; conditions: 72 or 144 hours
Source text: as §1

B1: NME7-AB: recombinant human NME7 devoid of the DM10 domain, NDPK A and B domains, about 33 kDa monomer (protein)
chain: MEKTLALIKPDAISKAGEIIEIINKAGFTITKLKMMMLSRKEALDFHVDHQSRPFFNELIQFITTGPIIAMEILRDDAICEWKRLLGPANSGVARTDASESIRALFGTDGIRNAAHGPDSFASAAREMELFFPSSGGCGPANTAKFTNCTCCIVKPHAVSEGLLGKILMAIRDAGFEISAMQMFNMDRVNVEEFYEVYKGVVTEYHDMVTEMYSGPCVAMEIQQNNATKTFREFCGPADPEIARHLRPGTLRAIFGKTKIQNAVHCTDLPEDGLLEVQYFFKILDN
pluripotent stem cell growth / differentiation [1]: fully supported human stem cell growth, pluripotency, and resisted differentiation
pluripotent stem cell growth / differentiation ([1]; listed as NME7): no differentiation even when 100% confluent
cell number relative to culture in NM23-H1 dimers ([1]; 8 nM, cell counts at first harvest): 1.4 times
simultaneous binding of PSMGFR peptides [2]: simultaneously binds to two PSMGFR peptides
metastatic marker expression after culture in NME7-AB [3]: increase expression of metastatic markers CXCR4 and NME7-X1
metastatic marker expression after culture in NME7-AB [4]: increase expression of metastatic markers CHD1, SOX2 and NME7-X1

Source: patent US12479928B2, “Anti-cancer peptide” (Minerva Biotechnologies Corporation, priority 2014, dated 2025)
